Measured values from the RNAGym collection of RNA variant scans (doi:10.1073/pnas.2313332121).

B1: TPR t1 (parent)
chain: GACCAAUCUGCCCUCAGAGCUCGAGAACAUCUUCGGAUGCAGAGGAGGCAGGCUUCGGUGGCGCGAUAGCGCCAACGUCCUCAACCUCCAAUGCAUCCCACCACAUGAUGAUGCCUGAAGAGCCUUGGUUUUUUG

Variants of: B1
Assay: polymerase ribozyme fitness, log enrichment relative to wild type (log ratio); higher = more active; in vitro selection for triplet polymerase activity
In short: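 Mutant libraries of each subunit of a heterodimeric triplet polymerase ribozyme were built by PCR and transcribed. Each library went through one round of in vitro selection in triplicate: annealing with biotinylated primer, partner subunit and triplets, frozen incubation at −7 °C, gel excision of extended constructs, streptavidin-bead capture and RT-PCR. Input and output libraries were Illumina-sequenced; only genotypes with ≥10 input reads and ≥1 read per output were kept. Fitness is log2(genotype enrichment/wild-type enrichment), using inverse-variance-weighted replicate averages.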

First: C70U C80A A90U C123A
Second: C70A G135U
The “polymerase ribozyme fitness (log ratio)” value of the first is lower: -6.41 for the first, -1.99 for the second.

Compared with C70U C115U, C70U G122U is higher in “polymerase ribozyme fitness (log ratio)” value: -1.84 for the first, -0.0756 for the second.

Compared with C70U C85A C102A, C70G A84U C85U C104U is higher in “polymerase ribozyme fitness (log ratio)” value: -5.05 for the first, -4.81 for the second.

Compared with C70U A100U, C70U A100C is lower in “polymerase ribozyme fitness (log ratio)” value: -1.33 for the first, -1.61 for the second.

Going from C70U C123A to C70U C123G, the “polymerase ribozyme fitness (log ratio)” value rises from -0.0908 to 0.306.

Going from C70U C123U to G71U C80A U116G G117U A119U, the “polymerase ribozyme fitness (log ratio)” value falls from 0.707 to -7.09.

Going from G71A G93C A95C to G71U C97A C115U A119G, the “polymerase ribozyme fitness (log ratio)” value falls from -2.61 to -5.37.

Going from G71C C94A G113C to C70G U81A G117U G120A, the “polymerase ribozyme fitness (log ratio)” value falls from -4.44 to -5.65.

Going from C70U U78C C86G to G71C A100C, the “polymerase ribozyme fitness (log ratio)” value falls from -0.947 to -2.78.

First: C70U C82G C104A A111U C115U G127U
Second: G71C C72G C123G
The “polymerase ribozyme fitness (log ratio)” value of the first is lower: -6.19 for the first, -5.34 for the second.

Compared with C70U U112A U116A, C70U C114G is lower in “polymerase ribozyme fitness (log ratio)” value: -1.48 for the first, -3.48 for the second.

Going from G71C G135C to G71A A90G, the “polymerase ribozyme fitness (log ratio)” value falls from -1.39 to -1.65.

C70G C88G and C70G C98U G117A are within 0.2 log units of each other in “polymerase ribozyme fitness (log ratio)” value: -5.57 for the first, -5.6 for the second.

Compared with C70U U92A, G71C U81A G120U is higher in “polymerase ribozyme fitness (log ratio)” value: -4.11 for the first, -1.99 for the second.

First: G71U C114U
Second: G71A A83C G93C A118G
The “polymerase ribozyme fitness (log ratio)” value of the first is higher: -1.41 for the first, -2.9 for the second.

First: G71A
Second: G71C
The “polymerase ribozyme fitness (log ratio)” value of the first is higher: -0.673 for the first, -1.04 for the second.

Compared with G71U, C70U G128U is lower in “polymerase ribozyme fitness (log ratio)” value: -0.118 for the first, -1.82 for the second.

Going from G71C C79U to C70A U106C C114A, the “polymerase ribozyme fitness (log ratio)” value falls from 0.303 to -4.64.

First: C70A U116A G120C
Second: C70U C101U
The “polymerase ribozyme fitness (log ratio)” value of the first is lower: -1.85 for the first, -0.854 for the second.

Going from C70U C101G to C70G U81C, the “polymerase ribozyme fitness (log ratio)” value falls from -2.81 to -3.83.

Compared with C70G U81A, C70U U96C C97U C104A is higher in “polymerase ribozyme fitness (log ratio)” value: -5.64 for the first, -5.19 for the second.

Compared with G71C C123G, C70U C124A is higher in “polymerase ribozyme fitness (log ratio)” value: 0.627 for the first, 1.38 for the second.

First: C70U C124U
Second: C70U G113A C123A
The “polymerase ribozyme fitness (log ratio)” value of the first is higher: 0.579 for the first, -2.31 for the second.

Going from C70A U131A to C70U U92C C97U C123U, the “polymerase ribozyme fitness (log ratio)” value rises from -1.34 to -0.926.

First: C70U C82G G117U
Second: C70G C124A
The “polymerase ribozyme fitness (log ratio)” value of the first is lower: -3.92 for the first, -1.21 for the second.

Compared with C70G C80A C104G C124G, G71C C101A A121U U126G is higher in “polymerase ribozyme fitness (log ratio)” value: -6.03 for the first, -0.863 for the second.

Going from G71U A75G to C70U G135A, the “polymerase ribozyme fitness (log ratio)” value falls from -0.135 to -1.42.

Going from G71C G113C to G71A U81C C88A C123G G135U, the “polymerase ribozyme fitness (log ratio)” value rises from -2.72 to -0.881.

Compared with C70U U87A C97U U112A C115U G127A, C70A G120U is higher in “polymerase ribozyme fitness (log ratio)” value: -4.04 for the first, -1.5 for the second.

Going from C70U U81A U116G to G71A U96G, the “polymerase ribozyme fitness (log ratio)” value rises from -3.38 to -1.35.

Compared with C70G A100U C115A G120U, C70U C85U A91C is lower in “polymerase ribozyme fitness (log ratio)” value: -2.99 for the first, -3.52 for the second.

G71A G93A and G71A G93U are within 0.2 log units of each other in “polymerase ribozyme fitness (log ratio)” value: -1.39 for the first, -1.52 for the second.

First: G71A U78C C123U U131A
Second: C70G A100C
The “polymerase ribozyme fitness (log ratio)” value of the first is higher: -0.879 for the first, -4.69 for the second.

First: C70U U78A
Second: C70G C80U
The “polymerase ribozyme fitness (log ratio)” value of the first is higher: -1.17 for the first, -2.51 for the second.

Compared with C70U U129A, G71A C94U C102A U112G G120A is lower in “polymerase ribozyme fitness (log ratio)” value: -1.55 for the first, -4.87 for the second.

Compared with C70U A118U, C70G U129A is lower in “polymerase ribozyme fitness (log ratio)” value: 0.0135 for the first, -4.27 for the second.

Compared with G71A C123G, G71A A74U is lower in “polymerase ribozyme fitness (log ratio)” value: 1.1 for the first, -3.83 for the second.

Compared with G71C C88U, C70G U133G is lower in “polymerase ribozyme fitness (log ratio)” value: -2.61 for the first, -3.44 for the second.

Going from C70U C88G to C70U C88A, the “polymerase ribozyme fitness (log ratio)” value rises from -1.63 to -0.884.

Compared with G71C A111U, C70G G77A is higher in “polymerase ribozyme fitness (log ratio)” value: -4.31 for the first, -1.74 for the second.

Compared with C70U C73G A105U, C70G C104G G110A is lower in “polymerase ribozyme fitness (log ratio)” value: -4.61 for the first, -6.86 for the second.

In the case of G71A U112A, the “polymerase ribozyme fitness (log ratio)” value is reported as 0.323.
